Measurements taken from patent US20260232827A1 (Zymeworks, published 2026).

What was measured:
cynomolgus monkey NaPi2b [1] = molecular target: T1, cynomolgus monkey NaPi2b (cynomolgus monkey, UniProt O95436 1-690 (human entry)); experiment: flow cytometry on HEK293-6e cells transfected with cynomolgus NaPi2b, apparent Kd
T1 construct: Transfected into HEK293-6e cells (clone CL_#13433); also called Cy NaPi2b; Cyno NaPi2b
T1 chain: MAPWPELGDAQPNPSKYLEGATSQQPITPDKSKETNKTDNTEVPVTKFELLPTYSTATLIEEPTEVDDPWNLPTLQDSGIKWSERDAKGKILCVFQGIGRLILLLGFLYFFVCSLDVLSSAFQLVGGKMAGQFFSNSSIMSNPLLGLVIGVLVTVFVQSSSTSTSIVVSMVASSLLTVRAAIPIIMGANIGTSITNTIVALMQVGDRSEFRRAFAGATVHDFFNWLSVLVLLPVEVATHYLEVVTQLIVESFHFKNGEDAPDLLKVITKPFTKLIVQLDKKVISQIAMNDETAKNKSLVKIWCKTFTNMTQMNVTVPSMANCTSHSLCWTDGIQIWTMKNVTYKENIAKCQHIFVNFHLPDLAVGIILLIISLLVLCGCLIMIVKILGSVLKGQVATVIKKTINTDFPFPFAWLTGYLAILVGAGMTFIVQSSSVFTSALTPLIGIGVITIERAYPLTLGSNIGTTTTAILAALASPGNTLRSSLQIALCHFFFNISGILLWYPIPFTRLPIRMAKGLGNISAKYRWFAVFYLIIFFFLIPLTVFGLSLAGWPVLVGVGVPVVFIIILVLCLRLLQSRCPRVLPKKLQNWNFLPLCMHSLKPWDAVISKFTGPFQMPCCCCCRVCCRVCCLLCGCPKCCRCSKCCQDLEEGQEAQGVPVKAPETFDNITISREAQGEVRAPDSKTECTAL

[2] = molecular target: T2, human sodium-dependent phosphate transporter 2B (NaPi2b) (human, UniProt O95436 1-690); experiment: flow cytometry on HEK293-6e cells transfected with human NaPi2b
T2 construct: Endogenous on tumor cell lines (IGROV-1, OVCAR-3, HCC-78, TOV-21G, NCI-H441) or transfected into HEK293-6e cells with pTT5-huNaPi2b (CL_#13432); also called Hu NaPi2b; hNaPi2b
T2 sequence: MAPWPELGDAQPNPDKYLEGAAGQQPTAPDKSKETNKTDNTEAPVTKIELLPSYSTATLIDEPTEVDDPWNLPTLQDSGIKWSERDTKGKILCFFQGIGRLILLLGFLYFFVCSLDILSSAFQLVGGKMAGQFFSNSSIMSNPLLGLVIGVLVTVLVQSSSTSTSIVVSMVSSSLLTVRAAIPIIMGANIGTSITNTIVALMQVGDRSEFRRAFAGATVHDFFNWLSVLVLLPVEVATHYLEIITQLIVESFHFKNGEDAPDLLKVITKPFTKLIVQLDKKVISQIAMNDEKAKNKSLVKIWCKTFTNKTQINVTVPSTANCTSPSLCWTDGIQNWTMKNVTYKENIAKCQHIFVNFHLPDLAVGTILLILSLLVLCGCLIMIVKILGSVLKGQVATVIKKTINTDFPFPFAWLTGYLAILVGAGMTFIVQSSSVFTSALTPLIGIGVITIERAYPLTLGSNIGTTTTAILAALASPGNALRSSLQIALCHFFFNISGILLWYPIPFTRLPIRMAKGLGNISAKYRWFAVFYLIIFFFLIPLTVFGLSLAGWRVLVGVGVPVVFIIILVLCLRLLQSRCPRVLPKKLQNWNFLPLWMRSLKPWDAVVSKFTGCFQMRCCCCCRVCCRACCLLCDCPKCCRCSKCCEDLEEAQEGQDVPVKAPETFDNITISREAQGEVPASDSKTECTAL

[3] = molecular target: T2, human sodium-dependent phosphate …; experiment: flow cytometry on HEK293-6e cells transfected with human NaPi2b, apparent Kd
[4] = molecular target: T2, human sodium-dependent phosphate …; experiment: cell-based or functional assay
mouse NaPi2b [5] = molecular target: T3, mouse NaPi2b (mouse, UniProt Q9DBP0 1-697); experiment: flow cytometry on HEK293-6e cells transfected with mouse NaPi2b
T3 construct: Transfected into HEK293-6e cells (clone CL_#13476); also called Ms NaPi2b
T3 sequence: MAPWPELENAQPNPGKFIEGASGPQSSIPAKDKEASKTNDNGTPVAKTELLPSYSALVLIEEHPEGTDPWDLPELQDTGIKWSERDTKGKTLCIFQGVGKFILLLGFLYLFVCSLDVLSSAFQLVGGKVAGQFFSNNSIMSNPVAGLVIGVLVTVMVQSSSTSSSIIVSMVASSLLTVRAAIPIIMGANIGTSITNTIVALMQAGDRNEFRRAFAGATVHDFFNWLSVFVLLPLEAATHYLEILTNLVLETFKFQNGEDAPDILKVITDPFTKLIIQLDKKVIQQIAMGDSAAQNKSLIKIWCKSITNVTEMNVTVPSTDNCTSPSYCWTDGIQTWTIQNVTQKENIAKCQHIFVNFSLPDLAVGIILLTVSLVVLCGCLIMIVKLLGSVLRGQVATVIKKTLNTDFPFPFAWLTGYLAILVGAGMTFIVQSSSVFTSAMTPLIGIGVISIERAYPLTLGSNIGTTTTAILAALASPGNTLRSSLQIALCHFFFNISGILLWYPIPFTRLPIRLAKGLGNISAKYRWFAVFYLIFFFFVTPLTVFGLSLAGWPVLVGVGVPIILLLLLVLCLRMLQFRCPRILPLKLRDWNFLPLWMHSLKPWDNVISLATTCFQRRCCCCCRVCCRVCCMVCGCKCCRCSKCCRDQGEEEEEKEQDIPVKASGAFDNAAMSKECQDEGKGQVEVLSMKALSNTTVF

mouse NaPi2b [6] = molecular target: T3, mouse NaPi2b; experiment: flow cytometry on HEK293-6e cells transfected with mouse NaPi2b, apparent Kd
[7] = molecular target: T2, human sodium-dependent phosphate …; experiment: flow cytometry on HEK293-6e cells transfected with human NaPi2b, apparent Kd; remark: listed apart in the source
[8] = molecular target: T2, human sodium-dependent phosphate …; experiment: flow cytometry on IGROV-1 cells, 24 h at 4 C, anti-human IgG Fc AF647
[9] = molecular target: T2, human sodium-dependent phosphate …; experiment: flow cytometry on HEK293-6e cells transfected with human NaPi2b; remark: listed apart in the source
[10] = molecular target: T2, human sodium-dependent phosphate …; experiment: flow cytometry on OVCAR-3 cells, 24 h at 4 C, anti-human IgG Fc AF647
cynomolgus monkey NaPi2b [11] = molecular target: T1, cynomolgus monkey NaPi2b; experiment: flow cytometry on HEK293-6e cells transfected with cynomolgus NaPi2b
[12] = molecular target: T4, human sodium-dependent phosphate transporter 2B (NaPi2b) (human, UniProt O95436 1-690); experiment: flow cytometry, IGROV-1 cells (endogenous NaPi2b); design: unit not given here
T4 construct: UniProt ID is given as 095436 [sic]; also called hNaPi2b; Hu NaPi2b
T4 sequence: T2 sequence

[13] = molecular target: T4, human sodium-dependent phosphate …; experiment: flow cytometry, IGROV-1 cells (endogenous NaPi2b); apparent Kd
[14] = molecular target: T5, KLH (Sigma-Aldrich, H8283); experiment: non-specific ELISA, KLH coated, antibody 100 nM
T5 construct: Coating of the non-specific ELISA

[15] = molecular target: T4, human sodium-dependent phosphate …; experiment: KinExA, monovalent antibody, IGROV-1 cells (endogenous NaPi2b) as titrant, N-curve analysis

B1: v18992 (MX35) (antibody, human IgG1, kappa)
heavy 1: GQVQLVQSGAEVVKPGASVKMSCKASGYTFTGYNIHWVKQAPGQGLEWIGAIYPGNGDTSYKQKFRGRATLTADTSTSTVYMELSSLRSEDSAVYYCARGETARATFAYWGQGTLVTVSSASTKGPSVFPLAPSSKSTSGGTAALGCLVKDYFPEPVTVSWNSGALTSGVHTFPAVLQSSGLYSLSSVVTVPSSSLGTQTYICNVNHKPSNTKVDKKVEPKSCDKTHTCPPCPAPELLGGPSVFLFPPKPKDTLMISRTPEVTCVVVDVSHEDPEVKFNWYVDGVEVHNAKTKPREEQYNSTYRVVSVLTVLHQDWLNGKEYKCKVSNKALPAPIEKTISKAKGQPREPQVYVYPPSRDELTKNQVSLTCLVKGFYPSDIAVEWESNGQPENNYKTTPPVLDSDGSFALVSKLTVDKSRWQQGNVFSCSVMHEALHNHYTQKSLSLSPG
heavy 2: not shown
light: GDIQMTQSPSSLSASVGDRVTITCSASQDIGNFLNWYQQKPGKTVKVLIYYTSSLYSGVPSRFSGSGSGTDYTLTISSLQPEDFATYYCQQYSKLPLTFGQGTKLELKRTVAAPSVFIFPPSDEQLKSGTASVVCLLNNFYPREAKVQWKVDNALQSGNSQESVTEQDSKDSTYSLSSTLTLSKADYEKHKVYACEVTHQGLSSPVTKSFNRGEC
notes: Two different heavy chains (heterodimeric Fc)
Kd (cynomolgus monkey NaPi2b [1]): 0.67 nM
Bmax [2]: 548
Kd [3]: 1.51 nM
Internalized Fluorescence in OVCAR-3, 15 min, 100 nM [4]: 6650
Internalized Fluorescence in OVCAR-3, 4 hr, 100 nM [4]: 16100
Internalized Fluorescence in OVCAR-3, 16 hr, 100 nM [4]: 18600
Internalized Fluorescence in OVCAR-3, 24 hr, 100 nM [4]: 28600
Bmax (mouse NaPi2b [5]): 379
Kd (mouse NaPi2b [6]): 0.35 nM
Kd [7]: 1.51 nM
Bmax [8]: 21400
Kd [8]: 1.49 nM
Bmax [9]: 548
Bmax [10]: 14500
Kd [10]: 3.03 nM
Bmax (cynomolgus monkey NaPi2b [11]): 378

B2: v29452 (H1L3) (antibody, human IgG1, kappa, V domains shown)
VH: QVQLVQSGAEVKKPGASVKVSCKASGFTFTSYNVHWVRQAPGQGLEWMGAISPGNGDLSYAQKFQGRVTMTRDTSTSTVYMELSSLRSEDTAVYYCARGRTGMGAVDYWGQGTLVTVSS
VL: DVQMTQSPSSLSASVGDRVTITCRASQDVYSYLNWYQQKPGKAVKLLIYYTSRLQSGVPSRFSGSGSGTDYTLTISSLQPEDIATYYCQQYNIFPWTFGQGTKLEIKR
notes: Humanized IgG1/kappa
Bmax [12]: 47800
Kd [13]: 1.6 nM
NS-ELISA binding score (signal over buffer well) [14]: 1.34

B3: v36124 (monovalent format of humanized antibody variant 29456) (antibody, V domains shown)
VH: B2 VH
VL: DVQMTQSPSSLSASVGDRVTITCRASQDVYSYLNWYQQKPGKAVKLLIYYTSRLQSGVPSRFSGSGSGTDYTLTISSLQPEDFATYYCQQYNIFPWTFGQGTKLEIK
notes: Monovalent format; rest of the construct not described; also called VH1/VL2
Kd [15]: 0.283 nM

B4: humanized anti-NaPi2b antibody variant v38591 (antibody, human IgG1, kappa)
heavy: not shown
light: DVQMTQSPSSLSASVGDRVTITCRASQDVYSYLNWYQQKPGKAVKLLIYYTSRLQSGVPSRFSGSGSGTDYTLTISSLQPEDFATYYCQQYNIFPWTFGQGTKLEIKRTVAAPSVFIFPPSDEQLKSGTASVVCLLNNFYPREAKVQWKVDNALQSGNSQESVTEQDSKDSTYSLSSTLTLSKADYEKHKVYACEVTHQGLSSPVTKSFNRGEC
notes: Human IgG1/kappa, full-size antibody; same as v29456 but the heavy chains include a C-terminal lysine; also called v38591 (H1L2); v38591 wild-type Fc
Kd (cynomolgus monkey NaPi2b [1]): 0.27 nM
Bmax [2]: 651
Kd [3]: 1.68 nM
Internalized Fluorescence in OVCAR-3, 15 min, 100 nM [4]: 7620
Internalized Fluorescence in OVCAR-3, 4 hr, 100 nM [4]: 16600
Internalized Fluorescence in OVCAR-3, 16 hr, 100 nM [4]: 24300
Internalized Fluorescence in OVCAR-3, 24 hr, 100 nM [4]: 32400
Bmax (mouse NaPi2b [5]): 385
Kd (mouse NaPi2b [6]): 0.29 nM
Kd [7]: 1.68 nM
Bmax [8]: 22200
Kd [8]: 1.67 nM
Bmax [9]: 651
Bmax [10]: 15100
Kd [10]: 2.8 nM
Bmax (cynomolgus monkey NaPi2b [11]): 429

B5: v29814 (monovalent format of parental chimeric variant 23855) (antibody, V domains shown)
VH: QAYLQQSGAELVRPGASVKMSCKASGFTFTSYNVHWVKQTPRQGLEWIAAISPGNGDLSYNQRFKDKATLTVDRSSSTAYMQLSGLTSEDSAVYFCARGRTGMGAVDYWGQGTSVTVSS
VL: DVQMTQTASSLSASLGDRVTISCRASQDVYSYLNWYQQKPHGTVKLLIYYTSRLQSGVPSRFTGSGSGTDYSLTISNLEPEDIATYYCQQYNIFPWTFGGGTKLEIK
notes: Monovalent format; VH and VL are those of v23855; also called parental chimeric monovalent antibody variant
Kd [15]: 0.15 nM
